# Measured values from patent publication US20100331256.
# “And” between values parts separate entries of the source, which are not always exact repeats. Identical values can stand only once.
# T1: (PEO12)-Biotin-CNP22
# T1 chain: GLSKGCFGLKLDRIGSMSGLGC
# T2: Analog A: CNP22, C6-CH2-NH (reduced carbonyl)
# T2 chain: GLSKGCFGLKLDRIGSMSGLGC
# T3: Analog AC: CNP22, K4R, G8T
# T3 chain: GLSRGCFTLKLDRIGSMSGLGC
# T4: Analog AH: CNP22, K4R
# T4 chain: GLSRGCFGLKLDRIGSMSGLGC
# T5: Analog AT: CNP22, G1E, K4E
# T5 chain: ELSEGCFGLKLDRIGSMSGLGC
# T6: Analog AV: Pentanoic acid (N-term.)-CNP22, G1E, K4E (not fully specified)
# T6 chain: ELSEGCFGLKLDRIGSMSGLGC
# T7: Analog AW: Heptanoic acid (N-term.)-CNP22, G1E, K4E
# T7 chain: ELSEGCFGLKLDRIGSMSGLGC
# T8: Analog AY: GANRR-CNP22, K4R (CNP-27)
# T8 chain: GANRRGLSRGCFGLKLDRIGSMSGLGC
# T9: Analog AZ: R-CNP22, K4R
# T9 chain: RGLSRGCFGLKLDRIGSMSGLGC
# T10: Analog B: CNP22, N-methyl-F7 (methylated amide)
# T10 chain: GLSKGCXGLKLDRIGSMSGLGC
# T11: Analog BA: ER-CNP22, K4R
# T11 chain: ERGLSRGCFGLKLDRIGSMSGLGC
# T12: Analog BB: Heptanoic acid (N-term.)-CNP22, G1E
# T12 chain: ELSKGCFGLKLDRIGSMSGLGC
# T13: Analog BJ: CNP22, K4R, G15N
# T13 chain: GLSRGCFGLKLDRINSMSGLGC
# T14: Analog BK: CNP22, K4R, G15S
# T14 chain: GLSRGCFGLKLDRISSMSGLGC
# T15: Analog BL: QEHPNARKYKGANKK-CNP22 (CNP37)
# T15 chain: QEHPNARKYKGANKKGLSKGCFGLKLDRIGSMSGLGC
# T16: Analog BM: CNP53
# T16 chain: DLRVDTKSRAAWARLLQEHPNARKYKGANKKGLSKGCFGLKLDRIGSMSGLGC
# T17: Analog CC: DLRVDTKSRAAWAR-CNP22
# T17 chain: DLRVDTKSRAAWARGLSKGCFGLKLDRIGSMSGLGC
# T18: Analog CF: GQPREPQVYTLPPS-CNP22 (IgG1(Fc) fragment)
# T18 chain: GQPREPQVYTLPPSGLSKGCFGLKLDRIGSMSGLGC
# T19: Analog CG: GANSS-CNP22, K4R
# T19 chain: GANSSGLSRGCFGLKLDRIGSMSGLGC
# T20: Analog CK: GQPREPQVYTGANQQ-CNP22, K4R (IgG1 fragment)
# T20 chain: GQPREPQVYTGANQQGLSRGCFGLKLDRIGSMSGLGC
# T21: Analog CL: GVPQVSTSTGANQQ-CNP22, K4R (HSA fragment)
# T21 chain: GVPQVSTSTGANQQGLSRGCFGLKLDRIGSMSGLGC
# T22: Analog CS: GQEHPNARKYKGANPK-CNP22 (modified CNP37) (not fully specified)
# T22 chain: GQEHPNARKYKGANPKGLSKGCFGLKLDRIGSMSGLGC
# T23: Analog E: CNP22, D-F7 (D-Phe)
# T23 chain: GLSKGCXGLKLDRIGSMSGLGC
# T24: Analog F: CNP22, t-butyl-G8
# T24 chain: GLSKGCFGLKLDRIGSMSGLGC
# T25: Analog G: CNP22, 3-chloro-F7
# T25 chain: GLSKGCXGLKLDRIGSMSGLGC
# T26: Analog H: CNP22, Beta-2-F7 (3-amino-2-phenylpropionyl)
# T26 chain: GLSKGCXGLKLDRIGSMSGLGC
# T27: Analog K: CNP22, N-methyl-L9, N-methyl-L20
# T27 chain: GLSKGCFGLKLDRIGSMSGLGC
# T28: Analog L: CNP22, N-methyl-L9, N-methyl-L11, N-methyl-L20
# T28 chain: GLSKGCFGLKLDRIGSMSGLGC
# T29: Analog M: CNP22, N-methyl-L9, N-methyl-L11
# T29 chain: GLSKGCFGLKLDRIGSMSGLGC
# T30: Analog N: D-CNP22 (all D-amino acids)
# T30 chain: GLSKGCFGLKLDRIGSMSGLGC
# T31: Analog P: CNP22, K4G
# T31 chain: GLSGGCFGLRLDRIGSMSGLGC
# T32: Analog V: CNP22, K4G, 3,4-dichloro-F7
# T32 chain: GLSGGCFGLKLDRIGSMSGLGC
# T33: Analog X: CNP22, K4G, 3-methyl-F7
# T33 chain: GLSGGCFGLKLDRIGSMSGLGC
# T34: PEG1K-CNP22
# T34 chain: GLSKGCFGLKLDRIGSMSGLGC
# T35: PEG1K-GANRR-CNP22(K4R)
# T35 chain: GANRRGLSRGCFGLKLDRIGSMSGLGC
# T36: PEG20K-CNP22
# T36 chain: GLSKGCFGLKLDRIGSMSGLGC
# T37: PEG2K-CNP17
# T37 chain: CFGLKLDRIGSMSGLGC
# T38: PEG2K-CNP22
# T38 chain: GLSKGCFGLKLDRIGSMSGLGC
# T39: PEG5K-CNP22
# T39 chain: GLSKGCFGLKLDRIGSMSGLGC
# T40: PEO12-CNP22
# T40 chain: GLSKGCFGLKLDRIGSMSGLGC
# T41: PEO12-GANPR-CNP22(K4R)
# T41 chain: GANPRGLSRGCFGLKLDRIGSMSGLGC
# T42: PEO12-GANRR-CNP22(K4R)
# T42 chain: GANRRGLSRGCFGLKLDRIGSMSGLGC
# T43: PEO12-R-CNP22(K4R)
# T43 chain: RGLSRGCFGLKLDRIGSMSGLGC
# T44: PEO24-CNP22
# T44 chain: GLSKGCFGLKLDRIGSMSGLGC
# T45: PEO24-GANRR-CNP22(K4R)
# T45 chain: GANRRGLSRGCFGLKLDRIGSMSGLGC
# T46: PEO4-(PEO12)3 (branched)-CNP22
# T46 chain: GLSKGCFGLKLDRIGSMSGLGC
# T47: wild-type C-type natriuretic peptide 22 (CNP22)
# T47 chain: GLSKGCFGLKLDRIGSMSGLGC
# How the values were obtained:
# (PEO12)-Biotin-CNP22 = molecular target: T1, (PEO12)-Biotin-CNP22
# [1] = molecular target: T2, Analog A: CNP22, C6-CH2-NH (reduced …)
# [2] = molecular target: T3, Analog AC: CNP22, K4R, G8T
# Analog AH: CNP22, K4R = molecular target: T4, Analog AH: CNP22, K4R
# [3] = molecular target: T5, Analog AT: CNP22, G1E, K4E
# [4] = molecular target: T6, Analog AV: Pentanoic acid …
# [5] = molecular target: T7, Analog AW: Heptanoic acid …
# [6] = molecular target: T8, Analog AY: GANRR-CNP22, K4R (CNP-27)
# Analog AZ: R-CNP22, K4R = molecular target: T9, Analog AZ: R-CNP22, K4R
# [7] = molecular target: T10, Analog B: CNP22, N-methyl-F7 …
# Analog BA: ER-CNP22, K4R = molecular target: T11, Analog BA: ER-CNP22, K4R
# [8] = molecular target: T12, Analog BB: Heptanoic acid …
# [9] = molecular target: T13, Analog BJ: CNP22, K4R, G15N
# [10] = molecular target: T14, Analog BK: CNP22, K4R, G15S
# [11] = molecular target: T15, Analog BL: QEHPNARKYKGANKK-CNP22 (CNP37)
# Analog BM: CNP53 = molecular target: T16, Analog BM: CNP53
# [12] = molecular target: T17, Analog CC: DLRVDTKSRAAWAR-CNP22
# [13] = molecular target: T18, Analog CF: GQPREPQVYTLPPS-CNP22 …
# [14] = molecular target: T19, Analog CG: GANSS-CNP22, K4R
# [15] = molecular target: T20, Analog CK: GQPREPQVYTGANQQ-CNP22, K4R …
# [16] = molecular target: T21, Analog CL: GVPQVSTSTGANQQ-CNP22, K4R …
# [17] = molecular target: T22, Analog CS: GQEHPNARKYKGANPK-CNP22 …
# [18] = molecular target: T23, Analog E: CNP22, D-F7 (D-Phe)
# [19] = molecular target: T24, Analog F: CNP22, t-butyl-G8
# [20] = molecular target: T25, Analog G: CNP22, 3-chloro-F7
# [21] = molecular target: T26, Analog H: CNP22, Beta-2-F7 …
# [22] = molecular target: T27, Analog K: CNP22, N-methyl-L9, …
# [23] = molecular target: T28, Analog L: CNP22, N-methyl-L9, …
# [24] = molecular target: T29, Analog M: CNP22, N-methyl-L9, …
# [25] = molecular target: T30, Analog N: D-CNP22 (all D-amino acids)
# Analog P: CNP22, K4G = molecular target: T31, Analog P: CNP22, K4G
# [26] = molecular target: T32, Analog V: CNP22, K4G, 3,4-dichloro-F7
# [27] = molecular target: T33, Analog X: CNP22, K4G, 3-methyl-F7
# PEG1K-CNP22 = molecular target: T34, PEG1K-CNP22
# PEG1K-GANRR-CNP22(K4R) = molecular target: T35, PEG1K-GANRR-CNP22(K4R)
# PEG20K-CNP22 = molecular target: T36, PEG20K-CNP22
# PEG2K-CNP17 = molecular target: T37, PEG2K-CNP17
# PEG2K-CNP22 = molecular target: T38, PEG2K-CNP22
# PEG5K-CNP22 = molecular target: T39, PEG5K-CNP22
# PEO12-CNP22 = molecular target: T40, PEO12-CNP22
# PEO12-GANPR-CNP22(K4R) = molecular target: T41, PEO12-GANPR-CNP22(K4R)
# PEO12-GANRR-CNP22(K4R) = molecular target: T42, PEO12-GANRR-CNP22(K4R)
# PEO12-R-CNP22(K4R) = molecular target: T43, PEO12-R-CNP22(K4R)
# PEO24-CNP22 = molecular target: T44, PEO24-CNP22
# PEO24-GANRR-CNP22(K4R) = molecular target: T45, PEO24-GANRR-CNP22(K4R)
# [28] = molecular target: T46, PEO4-(PEO12)3 (branched)-CNP22
# [29] = molecular target: T47, wild-type C-type natriuretic peptide 22 …
protein,measurement,setting,value
recombinant human neutral endopeptidase (NEP) (protein) DDGICKSSDCIKSAARLIQNMDATTEPCTDFFKYACGGWLKRNVIPETSSRYGNFDILRDELEVVLKDVLQEPKTEDIVAVQKAKALYRSCINESAIDSRGGEPLLKLLPDIYGWPVATENWEQKYGASWTAEKAIAQLNSKYGKKVLINLFVGTDDKNSVNHVIHIDQPRLGLPSRDYYECTGIYKEACTAYVDFMISVARLIRQEERLPIDENQLALEMNKVMELEKEIANATAKPEDRNDPMLLYNKMTLAQIQNNFSLEINGKPFSWLNFTNEIMSTVNISITNEEDVVVYAPEYLTKLKPILTKYSARDLQNLMSWRFIMDLVSSLSRTYKESRNAFRKALYGTTSETATWRRCANYVNGNMENAVGRLYVEAAFAGESKHVVEDLIAQIREVFIQTLDDLTWMDAETKKRAEEKALAIKERIGYPDDIVSNDNKLNNEYLELNYKEDEYFENIIQNLKFSQSKQLKKLREKVDKDEWISGAAVVNAFYSSGRNQIVFPAGILQPPFFSAQQSNSLNYGGIGMVIGHEITHGFDDNGRNFNKDGDLVDWWTQQSASNFKEQSQCMVYQYGNFSWDLAGGQHLNGINTLGENIADNGGLGQAYRAYQNYIKKNGEEKLLPGLDLNHKQLFFLNFAQVWCGTYRPEYAVNSIKTDVHSPGNFRIIGTLQNSAEFSEAFHCRKNSYMNPEKKCRVW,NEP cleavage t1/2,(PEO12)-Biotin-CNP22,2.33 h
same,NEP cleavage t1/2,[1],0.917 h
same,NEP cleavage t1/2,[2],1.33 h
same,NEP cleavage t1/2,"Analog AH: CNP22, K4R",1.33 h
same,NEP cleavage t1/2,[3],1 h
same,NEP cleavage t1/2,[4],2 h
same,NEP cleavage t1/2,[5],< 0.333 h
same,NEP cleavage t1/2,[6],1.08 h
same,NEP cleavage t1/2,"Analog AZ: R-CNP22, K4R",≥ 2.67 h
same,NEP cleavage t1/2,[7],1.33 h
same,NEP cleavage t1/2,"Analog BA: ER-CNP22, K4R",1.5 h
same,NEP cleavage t1/2,[8],0.75 h and 1.08 h
same,NEP cleavage t1/2,[9],2.5 h
same,NEP cleavage t1/2,[10],≥ 2.67 h
same,NEP cleavage t1/2,[11],> 2.67 h
same,NEP cleavage t1/2,Analog BM: CNP53,> 2.67 h
same,NEP cleavage t1/2,[12],> 2.67 h
same,NEP cleavage t1/2,[13],> 2.67 h
same,NEP cleavage t1/2,[14],1.58 h
same,NEP cleavage t1/2,[15],≥ 2.67 h
same,NEP cleavage t1/2,[16],> 2.67 h
same,NEP cleavage t1/2,[17],> 2.67 h
same,NEP cleavage t1/2,[18],2.17 h
same,NEP cleavage t1/2,[19],1.33 h
same,NEP cleavage t1/2,[20],2.25 h
same,NEP cleavage t1/2,[21],1.33 h
same,NEP cleavage t1/2,[22],1.33 h
same,NEP cleavage t1/2,[23],0.5 h
same,NEP cleavage t1/2,[24],> 2.67 h
same,NEP cleavage t1/2,[25],> 2.67 h
same,NEP cleavage t1/2,"Analog P: CNP22, K4G",1.13 h
same,NEP cleavage t1/2,[26],1.13 h
same,NEP cleavage t1/2,[27],1.13 h
same,NEP cleavage t1/2,PEG1K-CNP22,> 2.67 h
same,NEP cleavage t1/2,PEG1K-GANRR-CNP22(K4R),> 2.67 h
same,NEP cleavage t1/2,PEG20K-CNP22,> 2.67 h
same,NEP cleavage t1/2,PEG2K-CNP17,> 2.67 h
same,NEP cleavage t1/2,PEG2K-CNP22,> 2.67 h
same,NEP cleavage t1/2,PEG5K-CNP22,> 2.67 h
same,NEP cleavage t1/2,PEO12-CNP22,≥ 2.67 h
same,NEP cleavage t1/2,PEO12-GANPR-CNP22(K4R),1.33 h
same,NEP cleavage t1/2,PEO12-GANRR-CNP22(K4R),> 2.67 h
same,NEP cleavage t1/2,PEO12-R-CNP22(K4R),≥ 2.67 h
same,NEP cleavage t1/2,PEO24-CNP22,> 2.67 h
same,NEP cleavage t1/2,PEO24-GANRR-CNP22(K4R),> 2.67 h
same,NEP cleavage t1/2,[28],> 2.67 h
same,NEP cleavage t1/2,[29],1.33 h
